Source: the supplement of paper PMC9732359
± gives the uncertainty stated by the source.

Assay: protein stability index of a GFP-peptide fusion (yeast GPS) (PSI 1-4); higher = more stable; sorted into four equal gates, so the index is relative within each strain
Outline: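 The protein stability index of a peptide was calculated by multiplying its read frequency in each gate by that gate's number and adding the products. The peptides were tiled 17-residue stretches of yeast proteins, fused downstream of GFP on a Cherry-expressing plasmid and carried in yeast as a pooled library. Mid-log cultures in leucine-free medium were sorted into four equal gates by GFP/Cherry ratio, and each gate's plasmids were PCR-amplified and Illumina-sequenced.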

Row | Sequence | protein stability index (san1∆) | protein stability index (doa10∆) | protein stability index (pdr5∆) | protein stability index (ubr1∆)
1 | LLTLIVREYEQPDANKK [ISW2] | 3.09 ± 0.2 |  |  | 
2 | LLTPKSGEPIIAATQDF [RPO31] |  | 2.92 ± 0.16 | 2.57 ± 0.27 | 
3 | LLTVEEGQLKPGDGSSY [RPC25] | 2.83 ± 0.18 | 3.43 ± 0.15 | 3.23 ± 0.24 | 3.27 ± 0.14
4 | LLWTPKKLEITSDGALS [RPR2] | 2.61 ± 0.044 | 2.09 ± 0.047 | 2.42 ± 0.048 | 2.4 ± 0.034
5 | LMAQIFFGPTYYQRLRH [RPB2] | 2.08 ± 0.048 | 2.02 ± 0.035 | 1.81 ± 0.032 | 2.04 ± 0.031
6 | LMEASDAFRVHICGICG [RPB2] | 2.23 ± 0.11 | 2.08 ± 0.062 | 1.83 ± 0.098 | 2.5 ± 0.072
7 | LMEIHNILKVDSNSSSS [RGR1] | 2.63 ± 0.064 | 2.58 ± 0.06 | 2.67 ± 0.06 | 2.42 ± 0.049
8 | LMLGSVNLPGGILRRKS [RRP4] | 1.54 ± 0.14 | 1.96 ± 0.058 | 1.46 ± 0.11 | 1.4 ± 0.047
9 | LMRQGVLGIKVKIMRDP [RPS3] | 2.25 ± 0.083 | 2.4 ± 0.085 | 2.33 ± 0.074 | 2.74 ± 0.051
10 | LNAKYQSLGLDDLQKFN [ISW2] | 2.74 ± 0.049 | 3.03 ± 0.066 | 3 ± 0.061 | 2.7 ± 0.044
11 | LNCCGSVARVEDHDVHS [IRR1] | 2.41 ± 0.068 | 1.98 ± 0.079 | 2.49 ± 0.065 | 2.45 ± 0.06
12 | LNEMLNTRKNMSISLES [DIS3] | 2.63 ± 0.069 | 2.66 ± 0.053 | 2.91 ± 0.066 | 2.95 ± 0.051
13 | LNHILEKSTQLQQKHEL [YGR119C/NUP57] | 2.66 ± 0.034 | 2.52 ± 0.054 | 2.91 ± 0.042 | 2.82 ± 0.035
14 | LNISPFTFGLTVVQVYD [RPP0] | 1.55 ± 0.072 | 1.31 ± 0.043 | 1.61 ± 0.052 | 1.2 ± 0.044
15 | LNKEKLGPLFKKIVDDT [IRR1] | 3.22 ± 0.23 | 2.94 ± 0.099 | 3.12 ± 0.12 | 2.94 ± 0.076
16 | LNLDSEQTVEYMVSRAI [RPN3] | 2.93 ± 0.25 | 3.32 ± 0.23 | 3.22 ± 0.3 | 2.83 ± 0.11
17 | LNLQFKAKVDDLVLGKP [YLR335W/NUP2] | 3.34 ± 0.067 | 2.85 ± 0.11 | 3.39 ± 0.18 | 3.3 ± 0.078
18 | LNSYHIKNGRIYFTVPN [RGR1] | 2.19 ± 0.056 | 2.57 ± 0.054 | 2.21 ± 0.035 | 2.33 ± 0.037
19 | LNVVLDDAMEINGEDPA [SMX2] | 3.46 ± 0.039 | 3.35 ± 0.067 | 3.31 ± 0.07 | 3.2 ± 0.067
20 | LNWFRTTNMNVNNCIWA [RGR1] | 1.15 ± 0.12 | 2.22 ± 0.057 | 1.34 ± 0.045 | 1.28 ± 0.036
21 | LNYGNICEPKETLSIFT [YJL039C/NUP192] | 2.02 ± 0.12 | 2.02 ± 0.061 | 1.75 ± 0.056 | 1.73 ± 0.054
22 | LPAYSGEIGDFFSSDWR [POP1] | 3.24 ± 0.068 | 3.04 ± 0.11 | 3.32 ± 0.089 | 3.16 ± 0.096
23 | LPFMQNAGPNSNIPNLL [YDL088C/ASM4] | 2.58 ± 0.039 | 2.46 ± 0.037 | 2.18 ± 0.04 | 2.52 ± 0.029
24 | LPFYAILRSIPDKLLGV [COB] | 2.1 ± 0.055 | 2.59 ± 0.041 | 2.07 ± 0.039 | 1.99 ± 0.046
25 | LPGTEKGRKTNKYANND [CSL4] | 3.2 ± 0.072 | 3.22 ± 0.12 | 3.5 ± 0.13 | 3.41 ± 0.19
26 | LPHSPLWELALAFIPNI [YML031W/NDC1] | 1.24 ± 0.092 | 1.36 ± 0.084 | 1.25 ± 0.044 | 1.08 ± 0.05
27 | LPKYKEKKAASAKQTAP [MED7] | 2.74 ± 0.056 | 2.71 ± 0.095 | 2.97 ± 0.078 | 2.61 ± 0.066

Row | Sequence | protein stability index (san1∆) | protein stability index (doa10∆) | protein stability index (pdr5∆) | protein stability index (ubr1∆)
28 | LPLFYDLLNAASIESAD [IRR1] | 2.27 ± 0.047 | 2.08 ± 0.047 | 2.17 ± 0.056 | 2.78 ± 0.048
29 | LPLPPSVEWMKVSPSMC [SIN4] | 1.69 ± 0.09 | 1.75 ± 0.055 | 1.71 ± 0.05 | 1.55 ± 0.063
30 | LPLWHLLNRIPRMYHIG [POP1] | 2.06 ± 0.21 | 3.06 ± 0.17 | 2.97 ± 0.15 | 2.63 ± 0.15
31 | LPLYEKNTLLERLKQLT [SWP82] | 2.73 ± 0.1 | 2.71 ± 0.16 | 2.87 ± 0.088 | 2.87 ± 0.22
32 | LPNQIPGEYITTIKAIF [YMR129W/POM152] | 2.78 ± 0.053 | 2.37 ± 0.055 | 2.51 ± 0.055 | 3.11 ± 0.041
33 | LPRCSKEEFRLMISPKD [RRI2] | 1.58 ± 0.16 | 1.77 ± 0.056 | 1.88 ± 0.063 | 1.67 ± 0.044
34 | LPSHIISTSDVTRIINS [RPL4A] | 2.41 ± 0.035 | 2.43 ± 0.033 | 2.66 ± 0.038 | 2.55 ± 0.029
35 | LPTRGTLESLENLVVAD [COR1] | 2.84 ± 0.057 | 2.83 ± 0.059 | 3.04 ± 0.053 | 2.89 ± 0.042
36 | LPYERHMISQEGIKETQ [SWI1] | 1.3 ± 0.14 | 1.22 ± 0.066 | 1.23 ± 0.073 | 1.27 ± 0.065
37 | LQEAIDFAQKEINGDDD [PRE10] | 3.23 ± 0.067 | 2.96 ± 0.087 | 3 ± 0.079 | 2.96 ± 0.076
38 | LQEKEQLYFKKKVNYKV [ISW2] | 3.26 ± 0.23 | 2.96 ± 0.15 | 3.23 ± 0.15 | 3.48 ± 0.12
39 | LQELIVNGPNVHPGANY [RPO31] | 2.99 ± 0.072 | 2.83 ± 0.071 | 2.99 ± 0.092 | 2.45 ± 0.047
40 | LQHLRSRCHLVTKDTKK [SRP68] | 2.93 ± 0.12 | 2.93 ± 0.11 | 2.88 ± 0.11 | 3.12 ± 0.056
41 | LQKQMGIGSLTDLMSIV [RPC34] | 2.68 ± 0.12 | 1.91 ± 0.11 | 2.04 ± 0.13 | 1.86 ± 0.14
42 | LQLAPGAHLGRFVIWTE [RPL4A] | 3.18 ± 0.099 | 3.62 ± 0.21 | 2.98 ± 0.22 | 3.27 ± 0.08
43 | LQLASLQQKQRDLILKK [SMC3] | 3.1 ± 0.097 | 2.49 ± 0.14 | 2.46 ± 0.16 | 2.68 ± 0.13
44 | LQNNSDSESDSDSETNH [SKP1] | 2.84 ± 0.055 | 2.76 ± 0.065 | 3.19 ± 0.074 | 2.82 ± 0.082
45 | LQPVIPGGAASKSVPTP [SNF5] | 3.12 ± 0.049 | 2.93 ± 0.13 | 3.28 ± 0.062 | 3.13 ± 0.053
46 | LQQELATTQDQVASIIE [NUT2] | 3.23 ± 0.053 | 2.77 ± 0.059 | 2.95 ± 0.043 | 2.98 ± 0.037
47 | LQQICRVRNKDIRKFLD [RPL9A] | 2.04 ± 0.1 | 2.13 ± 0.074 | 2.2 ± 0.074 | 2.31 ± 0.054
48 | LQQKQQQRFQALQQQQQ [SWI1] | 1.37 ± 0.083 | 1.35 ± 0.057 | 1.53 ± 0.047 | 1.56 ± 0.063
49 | LQVLKRERDGIKEDIEK [SMC1] | 3.15 ± 0.066 | 3.06 ± 0.23 | 2.85 ± 0.12 | 2.75 ± 0.23
50 | LQYIIHDTLNNEIANSI [BRR2] | 2.86 ± 0.077 | 2.67 ± 0.057 | 2.69 ± 0.076 | 2.76 ± 0.056
51 | LQYYILEYMNTARINNR [RRI2] | 1.96 ± 0.14 | 2.12 ± 0.15 | 1.37 ± 0.097 | 1.93 ± 0.12
52 | LRELDVELIESKINELS [SMC4] | 3.38 ± 0.073 | 3.37 ± 0.096 | 3.47 ± 0.077 | 3.35 ± 0.047
53 | LRGEYNDLQSETKTKKE [SMC4] | 3.24 ± 0.072 |  | 3.4 ± 0.087 | 2.82 ± 0.066
54 | LRGSLLSRKPSDNKKRS [RPC82] | 3.27 ± 0.1 | 2.96 ± 0.13 | 3.6 ± 0.14 | 3.01 ± 0.13
